Laboratory results published in patent publication US20200087347 (published 2020).
Side-chain parts run from the residue outwards. [ ]: non-standard residue; d: D form. NMeK = CN[C@@H](CCCCN)C(=O)O; Ahx = NCCCCCC(=O)O; BDPFL = dye

How the values were obtained:
Assay in all cases: competition
integrin α5β1 = integrin α5β1 (human, UniProt P08648)
integrin αvβ5 = target: T1, integrin αvβ5 (human, UniProt P06756)
T1 chain 1: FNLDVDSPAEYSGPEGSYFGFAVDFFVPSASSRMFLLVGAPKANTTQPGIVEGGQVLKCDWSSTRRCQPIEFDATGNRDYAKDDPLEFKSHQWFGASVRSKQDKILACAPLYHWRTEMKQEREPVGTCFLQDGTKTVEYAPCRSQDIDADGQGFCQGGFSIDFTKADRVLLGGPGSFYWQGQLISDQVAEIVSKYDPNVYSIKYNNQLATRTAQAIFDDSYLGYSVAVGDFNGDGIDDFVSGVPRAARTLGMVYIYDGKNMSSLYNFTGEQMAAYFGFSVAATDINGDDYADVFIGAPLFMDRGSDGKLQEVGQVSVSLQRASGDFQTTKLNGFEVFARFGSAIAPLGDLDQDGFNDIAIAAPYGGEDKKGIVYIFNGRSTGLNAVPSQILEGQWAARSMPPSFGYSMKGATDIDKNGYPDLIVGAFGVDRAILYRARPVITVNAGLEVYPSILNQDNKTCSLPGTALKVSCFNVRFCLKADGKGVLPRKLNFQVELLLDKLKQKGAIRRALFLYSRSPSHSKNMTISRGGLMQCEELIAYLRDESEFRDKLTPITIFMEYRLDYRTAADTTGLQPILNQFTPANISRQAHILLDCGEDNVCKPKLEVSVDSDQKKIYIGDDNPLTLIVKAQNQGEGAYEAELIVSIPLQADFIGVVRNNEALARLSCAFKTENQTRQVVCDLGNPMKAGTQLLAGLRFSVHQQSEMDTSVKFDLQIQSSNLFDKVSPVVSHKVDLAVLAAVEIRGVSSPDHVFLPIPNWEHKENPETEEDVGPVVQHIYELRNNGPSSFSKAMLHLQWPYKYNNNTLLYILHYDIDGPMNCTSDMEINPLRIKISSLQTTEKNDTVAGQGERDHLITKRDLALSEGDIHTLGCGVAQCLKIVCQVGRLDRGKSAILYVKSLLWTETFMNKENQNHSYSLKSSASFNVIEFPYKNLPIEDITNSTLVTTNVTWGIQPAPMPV
T1 chain 2: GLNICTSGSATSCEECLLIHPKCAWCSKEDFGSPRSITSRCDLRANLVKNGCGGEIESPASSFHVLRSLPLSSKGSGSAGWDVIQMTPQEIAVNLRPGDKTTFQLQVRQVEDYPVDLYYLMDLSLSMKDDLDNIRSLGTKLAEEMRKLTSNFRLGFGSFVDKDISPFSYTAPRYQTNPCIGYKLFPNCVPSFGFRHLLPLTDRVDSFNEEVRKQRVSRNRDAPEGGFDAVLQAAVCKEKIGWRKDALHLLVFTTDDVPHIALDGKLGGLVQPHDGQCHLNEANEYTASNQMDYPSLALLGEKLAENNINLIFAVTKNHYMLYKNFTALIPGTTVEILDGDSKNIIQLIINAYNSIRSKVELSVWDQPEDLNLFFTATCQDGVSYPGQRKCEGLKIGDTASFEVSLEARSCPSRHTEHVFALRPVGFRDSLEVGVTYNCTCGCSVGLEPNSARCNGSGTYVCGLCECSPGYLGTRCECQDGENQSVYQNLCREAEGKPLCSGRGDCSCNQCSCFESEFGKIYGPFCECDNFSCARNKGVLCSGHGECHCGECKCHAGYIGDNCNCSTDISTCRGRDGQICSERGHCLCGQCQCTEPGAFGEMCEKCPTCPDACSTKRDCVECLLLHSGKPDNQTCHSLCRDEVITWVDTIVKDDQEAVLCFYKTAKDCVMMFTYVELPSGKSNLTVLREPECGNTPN

integrin αvβ3 = target: T2, integrin αvβ3 (human, UniProt P06756)
T2 chain 1: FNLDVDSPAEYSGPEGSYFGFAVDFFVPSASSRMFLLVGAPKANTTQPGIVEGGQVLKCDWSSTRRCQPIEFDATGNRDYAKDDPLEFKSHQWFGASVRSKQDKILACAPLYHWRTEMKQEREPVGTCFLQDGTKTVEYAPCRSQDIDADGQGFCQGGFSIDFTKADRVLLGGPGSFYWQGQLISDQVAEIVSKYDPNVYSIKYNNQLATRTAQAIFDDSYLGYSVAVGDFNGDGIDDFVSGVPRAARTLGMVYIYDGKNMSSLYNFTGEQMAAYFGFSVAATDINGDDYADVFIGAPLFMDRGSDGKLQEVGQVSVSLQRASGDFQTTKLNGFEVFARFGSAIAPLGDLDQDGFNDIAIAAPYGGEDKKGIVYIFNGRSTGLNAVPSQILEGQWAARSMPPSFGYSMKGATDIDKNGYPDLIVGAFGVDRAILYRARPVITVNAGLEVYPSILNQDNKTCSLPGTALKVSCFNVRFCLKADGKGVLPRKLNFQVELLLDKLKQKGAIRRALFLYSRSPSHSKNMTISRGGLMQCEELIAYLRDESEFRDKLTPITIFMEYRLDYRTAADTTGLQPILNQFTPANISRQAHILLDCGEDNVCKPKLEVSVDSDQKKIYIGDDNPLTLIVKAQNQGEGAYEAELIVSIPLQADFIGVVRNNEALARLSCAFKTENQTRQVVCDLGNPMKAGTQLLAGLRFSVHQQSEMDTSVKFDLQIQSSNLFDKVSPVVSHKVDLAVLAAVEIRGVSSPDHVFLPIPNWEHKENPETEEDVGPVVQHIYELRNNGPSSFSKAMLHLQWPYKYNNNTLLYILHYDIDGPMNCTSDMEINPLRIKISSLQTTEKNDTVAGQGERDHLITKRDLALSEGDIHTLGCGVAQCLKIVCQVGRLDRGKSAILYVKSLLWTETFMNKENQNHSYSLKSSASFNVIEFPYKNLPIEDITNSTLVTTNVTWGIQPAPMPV
T2 chain 2: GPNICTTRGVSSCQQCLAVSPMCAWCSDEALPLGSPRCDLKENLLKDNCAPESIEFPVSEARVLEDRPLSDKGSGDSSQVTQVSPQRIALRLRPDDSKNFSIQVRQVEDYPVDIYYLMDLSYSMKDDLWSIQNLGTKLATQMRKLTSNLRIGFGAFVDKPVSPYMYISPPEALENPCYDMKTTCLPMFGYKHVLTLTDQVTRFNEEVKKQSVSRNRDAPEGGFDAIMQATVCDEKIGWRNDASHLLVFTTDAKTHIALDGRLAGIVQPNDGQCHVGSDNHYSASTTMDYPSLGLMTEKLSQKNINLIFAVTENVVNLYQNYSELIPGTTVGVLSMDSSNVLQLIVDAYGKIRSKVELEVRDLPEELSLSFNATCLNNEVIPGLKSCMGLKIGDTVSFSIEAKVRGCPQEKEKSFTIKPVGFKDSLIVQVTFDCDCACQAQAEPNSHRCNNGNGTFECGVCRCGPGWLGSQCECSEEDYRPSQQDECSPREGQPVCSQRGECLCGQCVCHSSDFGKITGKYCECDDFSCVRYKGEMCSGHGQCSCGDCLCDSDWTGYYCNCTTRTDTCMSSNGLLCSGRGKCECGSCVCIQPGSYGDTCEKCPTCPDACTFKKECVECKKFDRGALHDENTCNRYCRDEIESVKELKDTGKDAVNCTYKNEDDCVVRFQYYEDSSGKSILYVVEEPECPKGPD

integrin αvβ6 = target: T3, integrin αvβ6 (human, UniProt P06756)
T3 chain 1: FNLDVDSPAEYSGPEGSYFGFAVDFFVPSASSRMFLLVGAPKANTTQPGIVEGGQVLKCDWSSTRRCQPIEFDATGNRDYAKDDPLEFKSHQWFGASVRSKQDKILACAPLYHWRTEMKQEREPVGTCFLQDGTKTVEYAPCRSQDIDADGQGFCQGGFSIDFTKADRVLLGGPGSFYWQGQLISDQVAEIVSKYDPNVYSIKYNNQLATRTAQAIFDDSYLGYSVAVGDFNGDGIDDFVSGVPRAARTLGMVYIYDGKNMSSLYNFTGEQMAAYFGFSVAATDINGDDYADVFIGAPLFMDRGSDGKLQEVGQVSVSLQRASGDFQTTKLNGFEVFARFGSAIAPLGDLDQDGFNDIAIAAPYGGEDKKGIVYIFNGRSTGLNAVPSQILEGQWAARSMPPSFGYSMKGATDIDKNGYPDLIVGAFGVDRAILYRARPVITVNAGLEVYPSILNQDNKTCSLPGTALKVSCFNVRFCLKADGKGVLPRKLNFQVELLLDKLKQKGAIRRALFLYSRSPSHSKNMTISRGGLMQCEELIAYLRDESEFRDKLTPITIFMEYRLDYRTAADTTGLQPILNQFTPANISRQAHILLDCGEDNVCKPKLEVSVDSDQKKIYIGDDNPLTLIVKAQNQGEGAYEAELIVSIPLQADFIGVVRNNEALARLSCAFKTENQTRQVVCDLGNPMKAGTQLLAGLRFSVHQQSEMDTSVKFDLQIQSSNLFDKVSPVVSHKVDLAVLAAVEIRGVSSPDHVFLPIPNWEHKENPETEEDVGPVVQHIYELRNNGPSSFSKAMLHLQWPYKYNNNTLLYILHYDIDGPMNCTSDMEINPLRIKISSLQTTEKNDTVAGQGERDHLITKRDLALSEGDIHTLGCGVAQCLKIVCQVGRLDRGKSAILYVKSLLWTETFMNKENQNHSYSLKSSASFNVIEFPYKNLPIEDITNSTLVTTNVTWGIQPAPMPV
T3 chain 2: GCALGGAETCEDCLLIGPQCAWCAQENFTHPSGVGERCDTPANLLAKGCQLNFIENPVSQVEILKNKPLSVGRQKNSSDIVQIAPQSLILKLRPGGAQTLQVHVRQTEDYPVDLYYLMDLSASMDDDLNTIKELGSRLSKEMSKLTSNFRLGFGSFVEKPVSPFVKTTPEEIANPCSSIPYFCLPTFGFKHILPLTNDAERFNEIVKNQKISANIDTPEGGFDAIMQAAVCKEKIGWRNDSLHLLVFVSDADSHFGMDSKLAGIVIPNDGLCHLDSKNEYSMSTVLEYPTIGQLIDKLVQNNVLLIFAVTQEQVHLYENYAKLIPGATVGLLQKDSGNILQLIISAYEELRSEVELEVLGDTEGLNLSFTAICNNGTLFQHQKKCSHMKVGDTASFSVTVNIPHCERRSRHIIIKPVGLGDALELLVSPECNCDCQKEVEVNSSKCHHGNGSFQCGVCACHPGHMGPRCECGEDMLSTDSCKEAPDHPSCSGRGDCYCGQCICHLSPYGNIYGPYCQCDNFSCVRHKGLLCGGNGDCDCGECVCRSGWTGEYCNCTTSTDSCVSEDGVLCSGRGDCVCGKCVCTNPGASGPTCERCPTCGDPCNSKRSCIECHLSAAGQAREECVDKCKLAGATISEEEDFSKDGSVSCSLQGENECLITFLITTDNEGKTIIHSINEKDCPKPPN

integrin αvβ8 = target: T4, integrin αvβ8 (human, UniProt P06756)
T4 chain 1: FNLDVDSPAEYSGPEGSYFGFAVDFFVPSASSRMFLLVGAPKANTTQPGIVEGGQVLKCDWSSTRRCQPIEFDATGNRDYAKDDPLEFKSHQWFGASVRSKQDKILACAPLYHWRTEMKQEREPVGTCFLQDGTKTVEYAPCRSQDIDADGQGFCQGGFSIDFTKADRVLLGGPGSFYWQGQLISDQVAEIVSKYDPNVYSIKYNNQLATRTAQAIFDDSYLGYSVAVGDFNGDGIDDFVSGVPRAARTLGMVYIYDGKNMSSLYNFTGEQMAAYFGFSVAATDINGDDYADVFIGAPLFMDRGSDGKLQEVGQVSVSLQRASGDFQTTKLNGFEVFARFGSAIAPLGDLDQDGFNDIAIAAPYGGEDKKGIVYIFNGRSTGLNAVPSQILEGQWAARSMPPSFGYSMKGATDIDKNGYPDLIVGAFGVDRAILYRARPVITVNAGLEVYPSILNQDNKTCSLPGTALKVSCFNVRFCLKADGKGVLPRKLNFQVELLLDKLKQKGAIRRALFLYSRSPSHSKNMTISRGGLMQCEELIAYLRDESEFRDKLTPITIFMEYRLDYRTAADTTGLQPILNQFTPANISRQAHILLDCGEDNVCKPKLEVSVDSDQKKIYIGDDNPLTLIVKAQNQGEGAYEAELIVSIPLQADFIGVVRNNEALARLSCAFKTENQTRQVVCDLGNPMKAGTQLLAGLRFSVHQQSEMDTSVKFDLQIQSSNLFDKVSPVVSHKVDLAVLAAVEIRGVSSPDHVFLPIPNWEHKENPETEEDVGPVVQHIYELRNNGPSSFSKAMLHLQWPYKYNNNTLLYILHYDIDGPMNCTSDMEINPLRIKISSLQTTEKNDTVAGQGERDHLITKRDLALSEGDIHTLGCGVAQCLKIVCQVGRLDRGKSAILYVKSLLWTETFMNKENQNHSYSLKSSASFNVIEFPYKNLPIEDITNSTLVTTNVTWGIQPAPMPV
T4 chain 2: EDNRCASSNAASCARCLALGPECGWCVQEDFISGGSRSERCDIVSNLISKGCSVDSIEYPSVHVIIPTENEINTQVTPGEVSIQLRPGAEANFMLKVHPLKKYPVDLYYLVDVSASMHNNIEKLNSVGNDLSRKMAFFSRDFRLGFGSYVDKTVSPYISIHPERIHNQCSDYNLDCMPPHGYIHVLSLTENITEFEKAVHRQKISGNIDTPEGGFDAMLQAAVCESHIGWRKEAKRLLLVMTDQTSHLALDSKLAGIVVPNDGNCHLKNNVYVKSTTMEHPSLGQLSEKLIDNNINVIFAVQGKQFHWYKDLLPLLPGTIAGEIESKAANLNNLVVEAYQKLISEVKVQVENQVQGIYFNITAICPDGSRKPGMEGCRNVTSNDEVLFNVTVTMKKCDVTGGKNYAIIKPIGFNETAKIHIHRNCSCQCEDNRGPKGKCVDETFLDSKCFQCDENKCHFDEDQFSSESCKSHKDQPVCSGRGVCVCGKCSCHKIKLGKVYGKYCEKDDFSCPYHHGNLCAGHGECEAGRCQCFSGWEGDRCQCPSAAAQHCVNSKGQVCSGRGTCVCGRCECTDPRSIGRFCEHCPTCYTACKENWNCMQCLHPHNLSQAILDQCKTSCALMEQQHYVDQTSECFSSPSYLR

integrin αIIbβ3 = integrin αIIbβ3 (human, UniProt P08514)

integrin α5β1, sequence (P08648 42-1049, chain 1 of 2): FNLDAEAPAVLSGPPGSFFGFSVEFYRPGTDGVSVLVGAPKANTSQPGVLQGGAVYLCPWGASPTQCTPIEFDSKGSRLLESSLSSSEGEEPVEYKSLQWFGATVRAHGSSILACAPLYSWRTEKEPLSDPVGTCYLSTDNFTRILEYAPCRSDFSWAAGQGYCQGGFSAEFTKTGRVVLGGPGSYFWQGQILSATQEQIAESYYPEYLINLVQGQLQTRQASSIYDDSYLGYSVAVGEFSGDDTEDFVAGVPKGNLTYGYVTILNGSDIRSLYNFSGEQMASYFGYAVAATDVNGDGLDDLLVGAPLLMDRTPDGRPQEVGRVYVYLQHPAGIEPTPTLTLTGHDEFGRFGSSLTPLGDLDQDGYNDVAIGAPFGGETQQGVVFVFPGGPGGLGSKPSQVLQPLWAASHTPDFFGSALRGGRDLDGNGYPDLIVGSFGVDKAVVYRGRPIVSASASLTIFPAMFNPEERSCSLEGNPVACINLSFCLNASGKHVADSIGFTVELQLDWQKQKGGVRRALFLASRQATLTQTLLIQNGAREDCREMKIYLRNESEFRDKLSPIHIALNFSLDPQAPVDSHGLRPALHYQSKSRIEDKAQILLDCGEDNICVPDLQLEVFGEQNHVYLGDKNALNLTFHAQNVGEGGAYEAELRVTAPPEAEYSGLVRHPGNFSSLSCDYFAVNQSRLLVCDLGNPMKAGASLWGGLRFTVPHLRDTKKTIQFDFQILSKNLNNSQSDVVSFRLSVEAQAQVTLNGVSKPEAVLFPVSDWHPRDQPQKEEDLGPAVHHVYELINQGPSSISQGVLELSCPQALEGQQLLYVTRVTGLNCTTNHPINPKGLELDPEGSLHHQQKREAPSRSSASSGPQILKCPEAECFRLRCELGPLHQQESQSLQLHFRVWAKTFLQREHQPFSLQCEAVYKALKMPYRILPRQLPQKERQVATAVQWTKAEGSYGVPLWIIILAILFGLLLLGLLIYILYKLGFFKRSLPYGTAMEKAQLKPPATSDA
integrin α5β1, sequence (chain, as listed by the source, chain 2 of 2): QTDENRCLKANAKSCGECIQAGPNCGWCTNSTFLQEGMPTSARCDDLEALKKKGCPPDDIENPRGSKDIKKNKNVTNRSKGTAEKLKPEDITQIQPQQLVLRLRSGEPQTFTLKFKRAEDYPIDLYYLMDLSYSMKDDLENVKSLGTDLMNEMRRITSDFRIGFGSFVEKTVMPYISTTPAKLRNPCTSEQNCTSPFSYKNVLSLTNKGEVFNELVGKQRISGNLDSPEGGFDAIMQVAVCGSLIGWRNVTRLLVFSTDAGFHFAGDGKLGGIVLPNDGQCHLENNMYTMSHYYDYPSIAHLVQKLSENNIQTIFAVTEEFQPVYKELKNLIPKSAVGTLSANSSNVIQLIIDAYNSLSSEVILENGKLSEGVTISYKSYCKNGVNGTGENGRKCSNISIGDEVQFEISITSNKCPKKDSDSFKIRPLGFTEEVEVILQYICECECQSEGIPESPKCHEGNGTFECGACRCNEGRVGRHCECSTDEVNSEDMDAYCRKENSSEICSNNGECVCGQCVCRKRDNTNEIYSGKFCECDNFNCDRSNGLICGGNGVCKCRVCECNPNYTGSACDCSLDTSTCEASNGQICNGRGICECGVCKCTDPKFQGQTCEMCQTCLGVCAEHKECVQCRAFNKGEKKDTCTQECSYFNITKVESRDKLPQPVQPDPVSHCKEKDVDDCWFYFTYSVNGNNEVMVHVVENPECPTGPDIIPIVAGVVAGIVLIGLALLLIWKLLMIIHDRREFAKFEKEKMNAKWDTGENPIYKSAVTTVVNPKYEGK

Binder | IC50 (integrin α5β1) | IC50 (integrin αvβ5) | IC50 (integrin αvβ3) | IC50 (integrin αvβ6) | IC50 (integrin αvβ8) | IC50 (integrin αIIbβ3)
cyclo(RGDL[dP][NMeK](BDPFL)GL) [Compound 9a (9-BDPFL)] | 1470 nM | > 10000 nM | 676 nM | 94 nM | 0.66 nM | 
cyclo(RGDL[dP][NMeK]([Ahx-BDPFL])GL) [Compound 9b (9-Ahx-BDPFL)] | > 1000 nM | > 10000 nM | 239 nM | 55 nM | 0.87 nM | > 1000 nM
